This note sets out measurements from patent US20210393776A1 (FABION PHARMACEUTICALS, published 2021).

Experiment [1] concerns the target T1, recombinant cyno CD3epsilon/delta Fc(K-H) heterodimer (cynomolgus).
T1 construct: also called cynomolgus CD3epsilon/delta; recombinant cyno CD3epsilon/delta heterodimeric Fc protein; copies: 1 + 1
The experiment is described as follows: ELISA, immobilised antigen, biotinylated protein, streptavidin-HRP, ABTS, OD405.

The target of experiment [2] is T2, full length human EpCAM on CHO cells (human, UniProt P16422 24-314).
T2 construct: CHO cells stably expressing full length human EpCAM; also called hu-EpCAM-FL; human EpCAM-FL
T2 sequence: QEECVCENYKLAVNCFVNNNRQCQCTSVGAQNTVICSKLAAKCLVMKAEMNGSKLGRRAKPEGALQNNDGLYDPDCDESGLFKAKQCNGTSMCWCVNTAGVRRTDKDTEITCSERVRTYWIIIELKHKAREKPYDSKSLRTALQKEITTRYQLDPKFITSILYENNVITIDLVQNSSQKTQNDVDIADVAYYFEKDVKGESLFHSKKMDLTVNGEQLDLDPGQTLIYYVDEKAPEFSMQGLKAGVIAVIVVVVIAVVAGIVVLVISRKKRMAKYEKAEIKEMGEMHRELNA
In words: flow cytometry on CHO cells stably expressing full length human EpCAM, PE detection.

The target of experiment [3] is T3, human CD3epsilonAA1-27.Fc (human).
T3 construct: also called recombinant human CD3epsilon N-terminal peptide (aa1-27.Fc fusion); CD3epsilon N-terminal amino acid 1-27 peptide Fc fusion
The experiment is described as follows: ELISA, immobilised antigen, biotinylated protein, streptavidin-HRP, ABTS, OD405.

In experiment [4] the target is T4, human CD3 on cells (Jurkat cells; T cells in human PBMCs) (human, UniProt P07766 23-207).
T4 construct: whole, on cells; the other chains of the complex are present on the cells; also called CD3 on Jurkat cells; CD3 on T cells in PBMC preparation
In words: flow cytometry on Jurkat cells, biotinylated protein, streptavidin-PE.

B1: anti EpCAM scFv fusion to both HC and LC of OKT3 Fab (bispecific antibody)
heavy: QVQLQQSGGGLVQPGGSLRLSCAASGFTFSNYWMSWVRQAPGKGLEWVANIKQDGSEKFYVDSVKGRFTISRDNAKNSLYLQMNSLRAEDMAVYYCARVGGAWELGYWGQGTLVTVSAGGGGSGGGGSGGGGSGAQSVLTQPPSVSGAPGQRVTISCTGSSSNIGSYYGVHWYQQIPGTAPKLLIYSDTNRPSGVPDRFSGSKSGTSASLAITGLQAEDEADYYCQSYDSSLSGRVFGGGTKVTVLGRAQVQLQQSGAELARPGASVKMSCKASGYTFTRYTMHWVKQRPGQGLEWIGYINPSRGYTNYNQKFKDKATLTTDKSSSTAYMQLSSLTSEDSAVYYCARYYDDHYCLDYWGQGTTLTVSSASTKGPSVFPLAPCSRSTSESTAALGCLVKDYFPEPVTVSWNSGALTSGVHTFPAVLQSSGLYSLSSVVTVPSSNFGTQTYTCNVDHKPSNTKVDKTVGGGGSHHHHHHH
light: QVQLQQSGGGLVQPGGSLRLSCAASGFTFSNYWMSWVRQAPGKGLEWVANIKQDGSEKFYVDSVKGRFTISRDNAKNSLYLQMNSLRAEDMAVYYCARVGGAWELGYWGQGTLVTVSAGGGGSGGGGSGGGGSGAQSVLTQPPSVSGAPGQRVTISCTGSSSNIGSYYGVHWYQQIPGTAPKLLIYSDTNRPSGVPDRFSGSKSGTSASLAITGLQAEDEADYYCQSYDSSLSGRVFGGGTKVTVLGRAQIVLTQSPAIMSASPGEKVTMTCSASSSVSYMNWYQQKSGTSPKRWIYDTSKLASGVPAHFRGSGSGTSYSLTISGMEAEDAATYYCQQWSSNPFTFGSGTKLEINRTVAAPSVFIFPPSDEQLKSGTASVVCLLNNFYPREAKVQWKVDNALQSGNSQESVTEQDSKDSTYSLSSTLTLSKADYEKHKVYACEVTHQGLSSPVTKSFNRGEC
notes: also called EpCAM1.1×OKT3 Fab fusion, HC and LC
Turning to B1, the binding result is “no binding (tested: about 80 nM (last point; axis to 100 nM))” in experiment [1], “binds” in experiment [2], “no binding (tested: about 80 nM (last point; axis to 100 nM))” in experiment [3] and “no binding” in experiment [4].
